Measured values reported in patent CN115028713A (JIANGSU DONGKANG BIOMEDICAL TECH CO LTD, dated 2022).

Molecular target: 重组新冠N蛋白 N-HIS6X (recombinant SARS-CoV-2 N protein with His6 tag) (SARS-CoV-2, UniProt P0DTC9 1-419)

B1: 单克隆抗体OP2 (anti-SARS-CoV-2 N protein monoclonal antibody OP2) (antibody, V domains shown)
VH: DVQLVESGGGLVQPGGSRKLSCAASGSTFSNFGMHWVRQAPEKGLEWVAYISSASSIIYYADTVKGRFTISRDNPKNTLFLQMTSLRSEDTAMYYCARSAMDYWGQGTSVTVSS
VL: DIVLTQSPASLAVSLGQRATISCKASQSVNYSGDSYMNWFQQKPGQPPKLLIYAASNLESGIPARFSGSGSGTDFTLNIHPVEEEDAATYYCQQSEEQPYTFGGGTKLEIK
notes: also called 抗N蛋白的抗体
  EC50: 0.0113 µg/mL
